Assay results as given in publication PMC3026782, “The Cytoskeletal Protein Ndel1 Regulates Dynamin 2 GTPase Activity” (PLoS ONE, 2011).

What was measured:
[1] = biological target: T1, GST-Dyn2 F5 (GTPase+middle+PH+GED domains); test: cell-based or functional assay
T1 chain: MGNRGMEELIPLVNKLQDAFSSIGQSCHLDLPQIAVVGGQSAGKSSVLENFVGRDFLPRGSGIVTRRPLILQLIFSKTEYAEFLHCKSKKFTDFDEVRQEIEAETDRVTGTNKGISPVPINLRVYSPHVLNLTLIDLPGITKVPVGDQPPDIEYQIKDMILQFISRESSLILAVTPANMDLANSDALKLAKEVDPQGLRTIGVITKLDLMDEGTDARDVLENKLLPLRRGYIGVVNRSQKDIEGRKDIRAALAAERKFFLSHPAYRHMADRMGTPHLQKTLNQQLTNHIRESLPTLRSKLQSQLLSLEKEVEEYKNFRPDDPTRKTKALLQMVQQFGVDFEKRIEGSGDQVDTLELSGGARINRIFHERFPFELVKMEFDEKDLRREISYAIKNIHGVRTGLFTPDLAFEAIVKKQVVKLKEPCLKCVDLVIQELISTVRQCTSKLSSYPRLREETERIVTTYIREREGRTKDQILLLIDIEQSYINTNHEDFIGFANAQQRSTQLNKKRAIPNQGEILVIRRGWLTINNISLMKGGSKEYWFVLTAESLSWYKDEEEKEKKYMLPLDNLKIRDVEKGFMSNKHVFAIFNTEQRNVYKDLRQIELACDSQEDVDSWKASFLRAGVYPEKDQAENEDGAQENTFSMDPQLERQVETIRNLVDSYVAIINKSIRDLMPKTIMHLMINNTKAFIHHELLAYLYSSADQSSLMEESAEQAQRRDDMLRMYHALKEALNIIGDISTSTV

GST-fused Dyn2 = biological target: T2, GST-fused Dyn2 (UniProt P50570 1-870); test: cell-based or functional assay
T2 sequence (looked up): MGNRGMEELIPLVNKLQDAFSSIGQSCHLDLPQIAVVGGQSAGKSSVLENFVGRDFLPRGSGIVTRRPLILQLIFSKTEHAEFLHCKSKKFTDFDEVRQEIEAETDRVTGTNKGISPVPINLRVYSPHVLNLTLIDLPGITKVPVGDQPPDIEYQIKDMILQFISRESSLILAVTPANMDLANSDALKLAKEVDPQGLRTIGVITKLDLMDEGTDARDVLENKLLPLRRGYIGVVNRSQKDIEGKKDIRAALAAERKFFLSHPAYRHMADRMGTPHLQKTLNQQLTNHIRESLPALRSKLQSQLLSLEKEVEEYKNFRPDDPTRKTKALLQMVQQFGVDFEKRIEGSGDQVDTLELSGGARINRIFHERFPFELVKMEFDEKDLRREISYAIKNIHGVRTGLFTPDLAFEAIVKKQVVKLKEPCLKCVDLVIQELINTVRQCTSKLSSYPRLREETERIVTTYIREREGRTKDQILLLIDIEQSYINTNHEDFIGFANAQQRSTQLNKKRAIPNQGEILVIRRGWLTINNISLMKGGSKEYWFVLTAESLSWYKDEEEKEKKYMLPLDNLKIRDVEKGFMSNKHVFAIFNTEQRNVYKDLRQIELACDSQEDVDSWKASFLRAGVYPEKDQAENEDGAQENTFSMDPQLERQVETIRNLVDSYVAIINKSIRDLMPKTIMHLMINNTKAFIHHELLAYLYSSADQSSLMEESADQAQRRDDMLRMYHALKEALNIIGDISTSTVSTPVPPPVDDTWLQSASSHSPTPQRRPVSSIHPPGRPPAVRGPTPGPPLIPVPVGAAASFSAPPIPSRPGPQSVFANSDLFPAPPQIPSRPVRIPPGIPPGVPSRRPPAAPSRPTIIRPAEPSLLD

non-radioactive (ELIPA) GTPase assay of F5 with against without Ndel1 [1]: ~1.3 fold | radioactive GTPase assay: hydrolysis of GTP into GDP by Dyn2 oligomers (low salt) with against without Ndel1, over 60 minutes (GST-fused Dyn2): ~2 fold
B1: His-tagged Ndel1 (natural protein, UniProt Q9GZM8 1-345, looked up)
chain: MDGEDIPDFSSLKEETAYWKELSLKYKQSFQEARDELVEFQEGSRELEAELEAQLVQAEQRNRDLQADNQRLKYEVEALKEKLEHQYAQSYKQVSVLEDDLSQTRAIKEQLHKYVRELEQANDDLERAKRATIVSLEDFEQRLNQAIERNAFLESELDEKESLLVSVQRLKDEARDLRQELAVRERQQEVTRKSAPSSPTLDCEKMDSAVQASLSLPATPVGKGTENTFPSPKAIPNGFGTSPLTPSARISALNIVGDLLRKVGALESKLAACRNFAKDQASRKSYISGNVNCGVLNGNGTKFSRSGHTSFFDKGAVNGFDPAPPPPGLGSSRPSSAPGMLPLSV
